The target in data set [1] is T1, NF-AT3 full length (NFATC4) (UniProt Q14934).
T1 sequence: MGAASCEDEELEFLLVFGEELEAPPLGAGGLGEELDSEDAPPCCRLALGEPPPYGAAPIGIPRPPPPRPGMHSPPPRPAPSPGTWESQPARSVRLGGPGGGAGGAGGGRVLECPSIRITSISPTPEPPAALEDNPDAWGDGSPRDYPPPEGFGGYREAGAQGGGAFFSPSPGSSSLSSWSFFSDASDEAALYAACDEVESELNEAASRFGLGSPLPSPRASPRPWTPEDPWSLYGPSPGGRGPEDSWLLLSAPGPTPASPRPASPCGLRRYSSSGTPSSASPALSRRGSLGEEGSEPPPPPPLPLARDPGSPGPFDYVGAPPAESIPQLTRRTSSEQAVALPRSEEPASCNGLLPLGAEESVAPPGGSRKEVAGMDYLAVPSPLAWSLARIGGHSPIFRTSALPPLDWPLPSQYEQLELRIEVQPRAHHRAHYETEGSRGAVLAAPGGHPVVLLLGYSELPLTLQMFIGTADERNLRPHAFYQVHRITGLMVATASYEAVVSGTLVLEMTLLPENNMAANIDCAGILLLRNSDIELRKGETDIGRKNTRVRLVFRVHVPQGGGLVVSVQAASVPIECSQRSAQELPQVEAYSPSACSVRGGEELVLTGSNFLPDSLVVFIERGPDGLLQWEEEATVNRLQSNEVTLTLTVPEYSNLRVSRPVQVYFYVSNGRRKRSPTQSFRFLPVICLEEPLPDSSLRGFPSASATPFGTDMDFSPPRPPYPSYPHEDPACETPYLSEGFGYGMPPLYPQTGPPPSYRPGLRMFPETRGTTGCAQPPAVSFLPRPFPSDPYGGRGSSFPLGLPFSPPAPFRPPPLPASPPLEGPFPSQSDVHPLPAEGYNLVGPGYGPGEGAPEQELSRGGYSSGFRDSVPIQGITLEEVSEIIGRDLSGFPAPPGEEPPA
Put plainly: cell_activity. The note with it: CAT reporter activation with GATA4, NF-AT3 and activated calcineurin together in rat cardiomyocytes.

Data set [2] addresses full-length GATA4 (UniProt Q08369 1-441, limits assumed). Nature of the data set: cell-based or functional assay.

Experimental findings from patent publication US20060282909A1 (published 2006) are described below.

Chain of full-length GATA4 (Q08369 whole entry): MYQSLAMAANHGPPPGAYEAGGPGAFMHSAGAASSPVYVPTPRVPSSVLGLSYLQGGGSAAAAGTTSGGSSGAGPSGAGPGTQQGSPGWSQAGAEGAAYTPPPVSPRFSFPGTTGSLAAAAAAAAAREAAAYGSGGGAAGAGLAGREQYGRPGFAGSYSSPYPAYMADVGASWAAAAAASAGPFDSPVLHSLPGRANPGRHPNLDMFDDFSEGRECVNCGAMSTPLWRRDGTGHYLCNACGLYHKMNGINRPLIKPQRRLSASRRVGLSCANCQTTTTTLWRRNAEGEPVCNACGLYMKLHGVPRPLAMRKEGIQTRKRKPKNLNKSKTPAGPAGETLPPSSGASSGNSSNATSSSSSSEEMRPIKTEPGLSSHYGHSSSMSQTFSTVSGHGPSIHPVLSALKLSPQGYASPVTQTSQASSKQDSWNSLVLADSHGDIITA

Regarding BNP promoter 1800 bp, the activity in data set [1] is > 100 fold.

B1: full length NF-AT3 (other)
chain: MGAASCEDEELEFLLVFGEELEAPPLGAGGLGEELDSEDAPPCCRLALGEPPPYGAAPIGIPRPPPPRPGMHSPPPRPAPSPGTWESQPARSVRLGGPGGGAGGAGGGRVLECPSIRITSISPTPEPPAALEDNPDAWGDGSPRDYPPPEGFGGYREAGAQGGGAFFSPSPGSSSLSSWSFFSDASDEAALYAACDEVESELNEAASRFGLGSPLPSPRASPRPWTPEDPWSLYGPSPGGRGPEDSWLLLSAPGPTPASPRPASPCGLRRYSSSGTPSSASPALSRRGSLGEEGSEPPPPPPLPLARDPGSPGPFDYVGAPPAESIPQLTRRTSSEQAVALPRSEEPASCNGLLPLGAEESVAPPGGSRKEVAGMDYLAVPSPLAWSLARIGGHSPIFRTSALPPLDWPLPSQYEQLELRIEVQPRAHHRAHYETEGSRGAVLAAPGGHPVVLLLGYSELPLTLQMFIGTADERNLRPHAFYQVHRITGLMVATASYEAVVSGTLVLEMTLLPENNMAANIDCAGILLLRNSDIELRKGETDIGRKNTRVRLVFRVHVPQGGGLVVSVQAASVPIECSQRSAQELPQVEAYSPSACSVRGGEELVLTGSNFLPDSLVVFIERGPDGLLQWEEEATVNRLQSNEVTLTLTVPEYSNLRVSRPVQVYFYVSNGRRKRSPTQSFRFLPVICLEEPLPDSSLRGFPSASATPFGTDMDFSPPRPPYPSYPHEDPACETPYLSEGFGYGMPPLYPQTGPPPSYRPGLRMFPETRGTTGCAQPPAVSFLPRPFPSDPYGGRGSSFPLGLPFSPPAPFRPPPLPASPPLEGPFPSQSDVHPLPAEGYNLVGPGYGPGEGAPEQELSRGGYSSGFRDSVPIQGITLEEVSEIIGRDLSGFPAPPGEEPPA
For the molecule B1, in data set [2], the “activation of the BNP promoter (CAT reporter) in transfected neonatal rat cardiomyocytes” value was > 100 fold.
